Blank lines part the entries; values can stand above or below the binder they belong to.
Experiments:
[1] = biological target: human DLL4 protein (Acro, Cat. No. DL4-H5227) (human) (UniProt Q9NR61); assay: ELISA, coated hDLL4; maximum over 0.1, 1, 10, 100 nM antibody
[2] = biological target: DLL3 endogenously expressed on NCI-H82 cells (UniProt Q9NYJ7); assay: FACS on NCI-H82 cells; antibody 20 nM
[3] = biological target: human DLL3 protein (extracellular segment, His tag) (human) (UniProt Q9NYJ7); assay: SPR (Biacore 8K), antibody captured on Protein A chip, DLL3 antigen in solution, 1:1 Langmuir fit
human DLL3 protein (extracellular segment, His tag) (human), sequence (Q9NYJ7 27-492): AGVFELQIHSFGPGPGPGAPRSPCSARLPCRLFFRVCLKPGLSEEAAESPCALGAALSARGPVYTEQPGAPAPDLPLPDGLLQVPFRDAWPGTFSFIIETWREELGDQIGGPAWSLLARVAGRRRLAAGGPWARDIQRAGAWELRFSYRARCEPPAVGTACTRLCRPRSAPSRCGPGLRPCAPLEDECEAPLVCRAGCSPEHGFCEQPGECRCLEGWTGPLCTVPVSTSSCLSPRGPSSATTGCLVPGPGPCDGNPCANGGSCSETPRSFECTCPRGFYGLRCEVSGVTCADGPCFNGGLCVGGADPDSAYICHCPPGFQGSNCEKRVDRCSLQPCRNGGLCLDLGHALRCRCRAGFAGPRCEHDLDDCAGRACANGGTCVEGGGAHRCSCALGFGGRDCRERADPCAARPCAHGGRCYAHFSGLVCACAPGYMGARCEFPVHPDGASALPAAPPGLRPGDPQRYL

[4] = biological target: DLL3 endogenously expressed on NCI-H82 cells (UniProt Q9NYJ7); assay: FACS on NCI-H82 cells; antibody 4 nM
[5] = biological target: human DLL3 protein expressed on CHO-K1 recombinant cells (human DLL3 extracellular segment fused to EpCAM transmembrane and intracellular regions) (human) (UniProt Q9NYJ7); assay: FACS, CHO-K1 hDLL3 cells, 20 nM antibody
human DLL3 protein expressed on CHO-K1 recombinant cells (human DLL3 extracellular segment fused to EpCAM transmembrane and intracellular regions) (human), sequence (Q9NYJ7 other isoform, or with tags, fused parts or gaps limits assumed): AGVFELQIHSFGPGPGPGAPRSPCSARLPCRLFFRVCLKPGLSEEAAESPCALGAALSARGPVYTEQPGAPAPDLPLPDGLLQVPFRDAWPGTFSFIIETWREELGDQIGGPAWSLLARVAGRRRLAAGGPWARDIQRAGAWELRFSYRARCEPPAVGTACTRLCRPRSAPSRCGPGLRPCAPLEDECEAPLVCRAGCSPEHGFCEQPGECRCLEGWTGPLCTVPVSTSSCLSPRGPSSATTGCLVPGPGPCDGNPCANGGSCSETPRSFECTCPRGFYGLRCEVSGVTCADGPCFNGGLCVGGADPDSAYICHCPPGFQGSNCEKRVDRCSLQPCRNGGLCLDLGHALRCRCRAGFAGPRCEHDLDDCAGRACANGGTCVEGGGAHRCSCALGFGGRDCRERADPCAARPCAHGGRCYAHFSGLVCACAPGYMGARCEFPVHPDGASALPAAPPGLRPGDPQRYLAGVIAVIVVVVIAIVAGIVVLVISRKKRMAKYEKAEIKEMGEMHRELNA

[6] = biological target: mouse DLL3 on CHO-K1-mDLL3 cells (mouse) (UniProt O88516); assay: FACS, CHO-K1-mDLL3 cells, 100 nM antibody
mouse DLL3 on CHO-K1-mDLL3 cells (mouse), sequence (O88516 other isoform, or with tags, fused parts or gaps limits assumed): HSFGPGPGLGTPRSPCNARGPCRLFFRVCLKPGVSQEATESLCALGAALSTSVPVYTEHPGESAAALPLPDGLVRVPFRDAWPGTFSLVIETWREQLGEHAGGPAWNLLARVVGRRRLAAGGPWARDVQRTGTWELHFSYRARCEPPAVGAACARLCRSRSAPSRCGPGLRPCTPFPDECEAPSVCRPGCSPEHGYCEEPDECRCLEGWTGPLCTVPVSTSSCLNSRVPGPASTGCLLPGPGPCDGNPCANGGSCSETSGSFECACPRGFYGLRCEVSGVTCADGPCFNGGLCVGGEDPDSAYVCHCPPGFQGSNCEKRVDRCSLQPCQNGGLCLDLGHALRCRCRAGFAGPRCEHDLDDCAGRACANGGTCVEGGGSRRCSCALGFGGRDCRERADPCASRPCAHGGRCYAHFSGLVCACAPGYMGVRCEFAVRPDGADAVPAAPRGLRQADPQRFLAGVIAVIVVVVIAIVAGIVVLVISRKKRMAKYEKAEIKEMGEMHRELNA

[7] = biological target: DLL3 endogenously expressed on NCI-H82 cells (UniProt Q9NYJ7); assay: FACS on NCI-H82 cells; antibody 0.0064 nM
[8] = biological target: mouse DLL3 on CHO-K1-mDLL3 cells (mouse) (UniProt O88516); assay: FACS, CHO-K1-mDLL3 cells, 0.8 nM antibody
[9] = biological target: monkey DLL3 on CHO-K1-cyno DLL3 cells (cynomolgus monkey); assay: FACS, CHO-K1-cyno DLL3 cells, 4 nM antibody
monkey DLL3 on CHO-K1-cyno DLL3 cells (cynomolgus monkey), sequence (chain, as listed by the source limits assumed): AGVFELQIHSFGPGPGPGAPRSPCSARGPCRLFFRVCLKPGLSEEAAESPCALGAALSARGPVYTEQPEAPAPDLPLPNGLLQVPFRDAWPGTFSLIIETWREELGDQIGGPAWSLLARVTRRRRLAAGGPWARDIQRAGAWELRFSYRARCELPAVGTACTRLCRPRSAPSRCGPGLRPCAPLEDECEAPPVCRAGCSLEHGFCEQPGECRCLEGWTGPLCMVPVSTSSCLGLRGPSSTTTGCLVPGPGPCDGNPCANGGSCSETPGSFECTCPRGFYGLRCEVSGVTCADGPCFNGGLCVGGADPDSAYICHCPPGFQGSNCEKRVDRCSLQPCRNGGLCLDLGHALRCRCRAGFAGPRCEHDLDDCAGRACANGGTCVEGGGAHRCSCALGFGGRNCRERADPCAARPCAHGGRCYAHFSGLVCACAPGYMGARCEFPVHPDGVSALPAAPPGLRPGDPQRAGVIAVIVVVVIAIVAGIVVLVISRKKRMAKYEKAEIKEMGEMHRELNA

[10] = biological target: mouse DLL3 on CHO-K1-mDLL3 cells (mouse) (UniProt O88516); assay: FACS, CHO-K1-mDLL3 cells, 20 nM antibody
[11] = biological target: human DLL3 protein expressed on CHO-K1 recombinant cells (human DLL3 extracellular segment fused to EpCAM transmembrane and intracellular regions) (human) (UniProt Q9NYJ7); assay: FACS, CHO-K1 hDLL3 cells, 100 nM antibody
[12] = biological target: human DLL3 protein expressed on CHO-K1 recombinant cells (human DLL3 extracellular segment fused to EpCAM transmembrane and intracellular regions) (human) (UniProt Q9NYJ7); assay: FACS, CHO-K1 hDLL3 cells, 0.00128 nM antibody
[13] = biological target: mouse DLL3 on CHO-K1-mDLL3 cells (mouse) (UniProt O88516); assay: FACS, CHO-K1-mDLL3 cells, 0.0064 nM antibody
[14] = biological target: monkey DLL3 on CHO-K1-cyno DLL3 cells (cynomolgus monkey); assay: FACS, CHO-K1-cyno DLL3 cells, 100 nM antibody
[15] = biological target: human DLL3 protein expressed on CHO-K1 recombinant cells (human DLL3 extracellular segment fused to EpCAM transmembrane and intracellular regions) (human) (UniProt Q9NYJ7); assay: FACS, CHO-K1 hDLL3 cells, 0.032 nM antibody
[16] = biological target: human DLL1 protein (Acro, Cat. No. DL1-H52H8) (human) (UniProt O00548); assay: ELISA, coated hDLL1; maximum over 0.1, 1, 10, 100 nM antibody
human DLL1 protein (Acro, Cat. No. DL1-H52H8) (human), sequence (O00548 18-540 limits assumed): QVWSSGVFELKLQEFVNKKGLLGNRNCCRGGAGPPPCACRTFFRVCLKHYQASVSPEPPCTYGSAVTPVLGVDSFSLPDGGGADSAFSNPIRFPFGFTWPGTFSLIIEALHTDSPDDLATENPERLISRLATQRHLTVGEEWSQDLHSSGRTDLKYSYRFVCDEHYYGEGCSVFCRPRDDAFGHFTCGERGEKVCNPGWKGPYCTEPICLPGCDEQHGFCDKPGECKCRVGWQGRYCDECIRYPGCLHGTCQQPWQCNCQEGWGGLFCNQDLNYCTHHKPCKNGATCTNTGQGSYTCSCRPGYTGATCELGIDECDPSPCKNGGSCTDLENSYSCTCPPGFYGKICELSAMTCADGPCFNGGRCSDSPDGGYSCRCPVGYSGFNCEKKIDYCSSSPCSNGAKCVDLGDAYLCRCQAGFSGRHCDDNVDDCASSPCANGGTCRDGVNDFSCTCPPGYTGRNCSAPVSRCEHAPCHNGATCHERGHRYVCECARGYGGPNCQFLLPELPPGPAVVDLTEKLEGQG

[17] = biological target: human DLL3 protein expressed on CHO-K1 recombinant cells (human DLL3 extracellular segment fused to EpCAM transmembrane and intracellular regions) (human) (UniProt Q9NYJ7); assay: FACS, CHO-K1 hDLL3 cells, 4 nM antibody
[18] = biological target: monkey DLL3 on CHO-K1-cyno DLL3 cells (cynomolgus monkey); assay: FACS, CHO-K1-cyno DLL3 cells, 20 nM antibody
[19] = biological target: mouse DLL3 on CHO-K1-mDLL3 cells (mouse) (UniProt O88516); assay: FACS, CHO-K1-mDLL3 cells, 4 nM antibody
[20] = biological target: mouse DLL3 on CHO-K1-mDLL3 cells (mouse) (UniProt O88516); assay: FACS, CHO-K1-mDLL3 cells, 0.16 nM antibody
[21] = biological target: DLL3 endogenously expressed on NCI-H82 cells (UniProt Q9NYJ7); assay: FACS on NCI-H82 cells; antibody 0.00128 nM
[22] = biological target: DLL3 endogenously expressed on NCI-H82 cells (UniProt Q9NYJ7); assay: FACS on NCI-H82 cells; antibody 0.8 nM
[23] = biological target: mouse DLL3 on CHO-K1-mDLL3 cells (mouse) (UniProt O88516); assay: FACS, CHO-K1-mDLL3 cells, 0.032 nM antibody
[24] = biological target: mouse DLL3 on CHO-K1-mDLL3 cells (mouse) (UniProt O88516); assay: FACS, CHO-K1-mDLL3 cells, 0.00128 nM antibody
[25] = biological target: human DLL3 protein expressed on CHO-K1 recombinant cells (human DLL3 extracellular segment fused to EpCAM transmembrane and intracellular regions) (human) (UniProt Q9NYJ7); assay: FACS, CHO-K1 hDLL3 cells, 0.0064 nM antibody
[26] = biological target: DLL3 endogenously expressed on NCI-H82 cells (UniProt Q9NYJ7); assay: FACS on NCI-H82 cells; antibody 0.032 nM
[27] = biological target: DLL3 endogenously expressed on NCI-H82 cells (UniProt Q9NYJ7); assay: FACS on NCI-H82 cells; antibody 0.16 nM
[28] = biological target: monkey DLL3 on CHO-K1-cyno DLL3 cells (cynomolgus monkey); assay: FACS, CHO-K1-cyno DLL3 cells, 0.00128 nM antibody
[29] = biological target: monkey DLL3 on CHO-K1-cyno DLL3 cells (cynomolgus monkey); assay: FACS, CHO-K1-cyno DLL3 cells, 0.0064 nM antibody
[30] = biological target: monkey DLL3 on CHO-K1-cyno DLL3 cells (cynomolgus monkey); assay: FACS, CHO-K1-cyno DLL3 cells, 0.16 nM antibody
[31] = biological target: human DLL3 protein expressed on CHO-K1 recombinant cells (human DLL3 extracellular segment fused to EpCAM transmembrane and intracellular regions) (human) (UniProt Q9NYJ7); assay: FACS, CHO-K1 hDLL3 cells, 0.8 nM antibody
[32] = biological target: monkey DLL3 on CHO-K1-cyno DLL3 cells (cynomolgus monkey); assay: FACS, CHO-K1-cyno DLL3 cells, 0.8 nM antibody
[33] = biological target: human DLL3 protein expressed on CHO-K1 recombinant cells (human DLL3 extracellular segment fused to EpCAM transmembrane and intracellular regions) (human) (UniProt Q9NYJ7); assay: FACS, CHO-K1 hDLL3 cells, 0.16 nM antibody
[34] = biological target: DLL3 endogenously expressed on NCI-H82 cells (UniProt Q9NYJ7); assay: FACS on NCI-H82 cells; antibody 100 nM
[35] = biological target: human delta-like ligand 3 (DLL3) on SHP77 cells (human) (UniProt Q9NYJ7); assay: FACS on SHP77 cells
human delta-like ligand 3 (DLL3) on SHP77 cells (human), sequence (Q9NYJ7 27-618, stated change not applied): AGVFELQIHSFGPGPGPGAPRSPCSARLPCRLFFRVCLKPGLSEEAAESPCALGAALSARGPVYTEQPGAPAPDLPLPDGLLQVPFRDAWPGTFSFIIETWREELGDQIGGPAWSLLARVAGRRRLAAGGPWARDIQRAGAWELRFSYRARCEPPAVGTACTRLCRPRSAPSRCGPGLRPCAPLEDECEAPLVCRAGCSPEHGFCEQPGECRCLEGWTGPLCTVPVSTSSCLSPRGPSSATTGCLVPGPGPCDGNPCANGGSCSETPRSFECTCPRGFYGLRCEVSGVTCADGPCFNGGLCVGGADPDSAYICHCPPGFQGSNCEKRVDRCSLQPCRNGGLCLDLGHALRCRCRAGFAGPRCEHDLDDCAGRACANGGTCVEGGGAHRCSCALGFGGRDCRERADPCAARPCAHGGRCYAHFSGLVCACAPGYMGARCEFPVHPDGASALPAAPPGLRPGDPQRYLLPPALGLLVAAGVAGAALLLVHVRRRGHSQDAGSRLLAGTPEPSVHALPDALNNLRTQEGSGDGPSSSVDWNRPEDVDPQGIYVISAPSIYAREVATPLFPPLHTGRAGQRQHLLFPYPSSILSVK

[36] = biological target: monkey DLL3 on CHO-K1-cyno DLL3 cells (cynomolgus monkey); assay: FACS, CHO-K1-cyno DLL3 cells, 0.032 nM antibody

DLL3 endogenously expressed on NCI-H82 cells, sequence (Q9NYJ7 27-618): as the sequence (Q9NYJ7 27-618, stated change not applied) above
human DLL4 protein (Acro, Cat. No. DL4-H5227) (human), sequence (Q9NR61 27-524 limits assumed): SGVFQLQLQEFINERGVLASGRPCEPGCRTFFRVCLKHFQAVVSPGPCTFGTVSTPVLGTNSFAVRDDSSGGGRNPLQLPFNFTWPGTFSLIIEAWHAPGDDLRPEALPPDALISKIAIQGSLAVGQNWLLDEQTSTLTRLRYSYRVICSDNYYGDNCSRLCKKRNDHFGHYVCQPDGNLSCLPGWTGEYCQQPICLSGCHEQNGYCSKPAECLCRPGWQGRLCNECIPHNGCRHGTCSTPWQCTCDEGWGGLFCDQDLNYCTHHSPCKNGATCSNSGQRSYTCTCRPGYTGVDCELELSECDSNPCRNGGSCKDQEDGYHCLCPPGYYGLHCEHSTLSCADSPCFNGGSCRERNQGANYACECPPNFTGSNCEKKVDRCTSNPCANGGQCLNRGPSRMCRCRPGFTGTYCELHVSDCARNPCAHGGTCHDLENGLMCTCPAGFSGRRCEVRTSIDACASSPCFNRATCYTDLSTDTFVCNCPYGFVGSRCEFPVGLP

Emax of OD450 nm binding value [1]: 0.08 OD450 nm
MFI [2]: 504
Kd [3]: 0.286 nM
koff [3]: 0.000119 s⁻¹
kon [3]: 415000 M⁻¹ s⁻¹
MFI [4]: 454
MFI [5]: 14500 MFI
MFI [6]: 554 MFI
MFI [7]: 157
MFI [8]: 404 MFI
MFI [9]: 8440 MFI
MFI [10]: 523 MFI
MFI [11]: 15200 MFI
MFI [12]: 227 MFI
MFI [13]: 110 MFI
MFI [14]: 10500 MFI
MFI [15]: 1130 MFI
Emax of OD450 nm binding value [16]: 0.07 OD450 nm
MFI [17]: 13600 MFI
MFI [18]: 9050 MFI
MFI [19]: 485 MFI
MFI [20]: 278 MFI
MFI [21]: 123
MFI [22]: 434
MFI [23]: 165 MFI
MFI [24]: 98 MFI
MFI [25]: 411 MFI
MFI [26]: 252
MFI [27]: 397
MFI [28]: 239 MFI
MFI [29]: 424 MFI
MFI [30]: 3350 MFI
MFI [31]: 11300 MFI
MFI [32]: 7500 MFI
MFI [33]: 4120 MFI
MFI [34]: 596
MFI at 0.00128 nM [35]: 215 MFI
MFI at 0.0064 nM [35]: 305 MFI
MFI at 0.032 nM [35]: 554 MFI
MFI at 0.16 nM [35]: 1060 MFI
MFI at 0.8 nM [35]: 1410 MFI
MFI at 4 nM [35]: 1490 MFI
MFI at 20 nM [35]: 1660 MFI
MFI at 100 nM [35]: 1900 MFI
MFI [36]: 1110 MFI
B1: Hab006VL4VH1-hFc (scFv, part only; not given: scFv linker and human IgG1 Fc, V domains shown, not shown: another chain or arm of the molecule; a dimerising Fc or GST; small tags and cut ends)
VL: DIVMTQSPDSLAVSLGERATINCRATKSISKYLAWYQQKPGQTNKLLIFSGSTLQSGVPDRFSGSGSGTDFTLTISSLQAEDVAVYYCQQHHEYPYTFGGGTKVEIK
VH: EVQLVQSGAEVKKPGASVKVSCKASGYTFTSYWMHWVRQAPGQRLEWMGVIDPSDSLANYNQEFKGRVTITVDTSASTAYMELSSLRSEDTAVYYCARDSTVVAPMDYWGQGTTVTVSS

Emax of OD450 nm binding value [1]: 0.64 OD450 nm
MFI [2]: 1180
Kd [3]: 0.000116 nM
koff [3]: 2.03e-07 s⁻¹
kon [3]: 1.75e+06 M⁻¹ s⁻¹
MFI [4]: 1050
MFI [5]: 12400 MFI
MFI [6]: 1590 MFI
MFI [7]: 133
MFI [8]: 884 MFI
MFI [9]: 6820 MFI
MFI [10]: 1460 MFI
MFI [11]: 12200 MFI
MFI [12]: 120 MFI
MFI [13]: 130 MFI
MFI [14]: 7480 MFI
MFI [15]: 265 MFI
Emax of OD450 nm binding value [16]: 0.49 OD450 nm
MFI [17]: 11200 MFI
MFI [18]: 7330 MFI
MFI [19]: 1260 MFI
MFI [20]: 361 MFI
MFI [21]: 118
MFI [22]: 913
MFI [23]: 170 MFI
MFI [24]: 118 MFI
MFI [25]: 144 MFI
MFI [26]: 211
MFI [27]: 469
MFI [28]: 118 MFI
MFI [29]: 153 MFI
MFI [30]: 1150 MFI
MFI [31]: 4370 MFI
MFI [32]: 4260 MFI
MFI [33]: 861 MFI
MFI [34]: 1550
MFI at 0.00128 nM [35]: 101 MFI
MFI at 0.0064 nM [35]: 114 MFI
MFI at 0.032 nM [35]: 173 MFI
MFI at 0.16 nM [35]: 361 MFI
MFI at 0.8 nM [35]: 692 MFI
MFI at 4 nM [35]: 821 MFI
MFI at 20 nM [35]: 943 MFI
MFI at 100 nM [35]: 1270 MFI
MFI [36]: 352 MFI
B2: Hab015VL4VH6a-hFc (scFv, part only; not given: scFv linker and human IgG1 Fc, V domains shown, not shown: another chain or arm of the molecule; a dimerising Fc or GST; small tags and cut ends)
VL: NIVLTQSPATLSLSPGERATLSCKASENVGTYVSWFQQKPGQSPRLLIYGASNRYTGIPARFSGSGSGTDFTLTISSLEPEDFAVYYCGQFYSFPSTFGGGTKVEIK
VH: EVQLVESGGGLVKPGGSLRLSCAASGITFSNFWMNWVRQAPEKGLEWVGQIRLKSDDYATHYAESVKGRFTISREDSKNTVYLQMNSLKTEDTAVYYCTTGYYFDYWGQGTTVTVSS
